Target: T1, GST-MYCBP2cat (Homo sapiens, UniProt O75592)
T1 construct: GST-tagged MYCBP2cat (Ser4378-Phe4640), wt and mutants, were expressed at 16° C. overnight; made in house; host or cells: E. coli BL21-DE3
T1 sequence (O75592 4416-4678 limits assumed): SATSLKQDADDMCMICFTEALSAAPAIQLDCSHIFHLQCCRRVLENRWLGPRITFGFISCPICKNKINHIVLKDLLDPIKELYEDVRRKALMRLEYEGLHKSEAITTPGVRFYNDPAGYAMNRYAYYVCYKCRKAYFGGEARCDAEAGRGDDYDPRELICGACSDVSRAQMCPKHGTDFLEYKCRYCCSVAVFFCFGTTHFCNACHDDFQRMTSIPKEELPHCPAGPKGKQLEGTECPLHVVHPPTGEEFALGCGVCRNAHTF
Test: Multiple turnover E2 discharge panel (threonine discharge)
Type: biochemical
Conditions: 17 E2s tested
Experimental: E2s were screened for threonine discharge activity with GST-MYCBP2cat as described for the amino acid panel. E2s were also incubated in the presence of threonine but in the absence of GST-MYCBP2cat. These samples provided a reference to distinguish between intrinsic E2˜Ub instability and E3-dependent discharge.

B1: UBE2E1: E2 conjugating enzyme (protein, UniProt P51965 2-193, looked up)
Ubiquitin-conjugating enzyme …: SDDDSRASTSSSSSSSSNQQTEKETNTPKKKESKVSMSKNSKLLSTSAKRIQKELADITLDPPPNCSAGPKGDNIYEWRSTILGPPGSVYEGGVFFLDITFTPEYPFKPPKVTFRTRIYHCNINSQGVICLDILKDNWSPALTISKVLLSICSLLTDCNPADPLVGSIATQYMTNRAEHDRMARQWTKRYAT
- E2 partner activity with MYCBP2cat: robust activity
